Molecular target: ASIC3-YFP (UniProt O35240)
Experiment: FRET or BRET

Sequence of UniProt O35240 (O35240 whole entry): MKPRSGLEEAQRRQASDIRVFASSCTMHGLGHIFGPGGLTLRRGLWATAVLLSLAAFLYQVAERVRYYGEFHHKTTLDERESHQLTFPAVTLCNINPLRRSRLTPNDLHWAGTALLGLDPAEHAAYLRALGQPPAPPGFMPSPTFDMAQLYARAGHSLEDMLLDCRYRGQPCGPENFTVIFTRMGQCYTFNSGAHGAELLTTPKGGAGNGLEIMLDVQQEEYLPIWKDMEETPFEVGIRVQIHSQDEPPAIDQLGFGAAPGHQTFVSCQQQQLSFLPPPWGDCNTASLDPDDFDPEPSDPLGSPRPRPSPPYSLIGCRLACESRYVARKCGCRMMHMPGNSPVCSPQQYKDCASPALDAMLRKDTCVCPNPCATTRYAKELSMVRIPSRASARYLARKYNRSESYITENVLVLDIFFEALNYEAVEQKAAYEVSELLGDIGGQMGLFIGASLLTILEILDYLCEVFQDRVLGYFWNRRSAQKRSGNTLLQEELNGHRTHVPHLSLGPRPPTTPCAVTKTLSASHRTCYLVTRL

FRET signal (donor dequenching): 20%
Substance: P2X5-CFP (from UniProt P51578 1-455) (receptor)

From paper PMC3000793
